In assay [1] the target is HA-SUMO3 (UniProt P55854). The experiment in a line: co-IP; 293T cells cotransfected with GFP-INwt/mut and HA-SUMO2 or HA-SUMO3, 40 h; lysis buffer 20 mM Tris-HCl pH 7.5, 100 mM NaCl, 0.5% NP-40, 0.5 mM EDTA; immunoprecipitated with anti-HA, blotted with anti-GFP; densitometry with GFP-INwt set as 100%.
Assay [2] concerns the target HA-SUMO3 (UniProt P55854). The experiment in a line: co-IP (IP anti-HA, WB anti-GFP) with densitometric analysis. Conditions: 293 T cells cotransfected with GFP-INwt/mut and HA-SUMO3; parent: est. 1.0; read off a plot.
The target in assay [3] is GFP-IN 3VI mutant (V72A/I73A, I200A/V201A, V259A/V260A) (HIV-1). The experiment in a line: co-IP.
Assay [4] addresses M1 + M2 and M1 + M3 mutants. The assay can be described thus: co-IP; 293T cells cotransfected with GFP-INwt/mut and T7-LEDGF/p75, T7-Ku70 or HA-Ubc9; immunoprecipitated with rabbit anti-GFP, blotted with anti-T7 or anti-HA.
Assay [5] addresses M2 and M3. The assay is described as above.

Bounds are passed on as bounds.

Chain of T7-Ku70 (P12956 whole entry): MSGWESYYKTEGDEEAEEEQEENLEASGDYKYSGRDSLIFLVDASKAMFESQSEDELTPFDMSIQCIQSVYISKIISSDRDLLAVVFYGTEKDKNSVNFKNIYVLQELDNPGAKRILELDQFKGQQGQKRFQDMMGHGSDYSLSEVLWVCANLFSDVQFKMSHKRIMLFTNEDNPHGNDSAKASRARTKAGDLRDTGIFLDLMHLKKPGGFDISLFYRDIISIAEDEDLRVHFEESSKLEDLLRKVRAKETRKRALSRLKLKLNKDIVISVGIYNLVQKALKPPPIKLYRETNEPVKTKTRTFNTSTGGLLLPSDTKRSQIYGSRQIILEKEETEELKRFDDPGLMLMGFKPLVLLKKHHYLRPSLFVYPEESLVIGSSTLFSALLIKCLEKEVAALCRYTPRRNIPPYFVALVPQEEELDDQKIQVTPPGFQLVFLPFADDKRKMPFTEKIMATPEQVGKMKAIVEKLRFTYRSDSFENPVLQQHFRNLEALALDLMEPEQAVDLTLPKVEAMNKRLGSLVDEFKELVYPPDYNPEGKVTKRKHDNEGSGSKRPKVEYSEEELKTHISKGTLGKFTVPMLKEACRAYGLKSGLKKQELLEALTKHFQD

GFP-IN mutant M2 (I200A/V201A) (enzyme) registered a percent reduction in binding against GFP-INwt in assay [1] of 80%. Same read-out and setting: for GFP-IN mutant M3 (V259A/V260A) (enzyme) the value was 67%.

For “GFP-IN wild type (HIV-1 integrase, codon-optimized, fused to AcGFP) K46R; K136R; K244R”, the ratio to parent in assay [2] came to 1.1. Still for that read-out and setting: for “GFP-IN wild type (HIV-1 integrase, codon-optimized, fused to AcGFP) V72A; I73A” the value was 1.2. Same read-out and setting: next, “GFP-IN wild type (HIV-1 integrase, codon-optimized, fused to AcGFP) V72A; I73A; I200A; V201A; V259A; V260A”: 0.01.

Substance “T7-Ku70 (from UniProt P12956 1-609) (natural protein)” yielded a fold change in binding against INwt in assay [3] of 2 fold. For “T7-LEDGF/p75 (lens-epithelium-derived growth factor) (from UniProt O75475 1-530) (natural protein)”, the percent of the binding of INwt in assay [3] is less than 10%; in assay [4] it was 10 to 20%; in assay [5] it was 40 to 60%.
